Measurements published in patent US20040109827A1, “Powdery preparations and proecss for producing the same” (priority 2000, published 2004).

Assay: Cascade impactor (Andersen sampler) analysis of powder formulations as a model of artificial airways and lung
Settings: Table 9
Experimental: In order to investigate aerodynamic particle diameters of powders, examination was carried out using a cascade impactor as a model of artificial airways and lung. The main body comprises 8 stages and a final filter superposed on top of another in combination with a flow meter and a suction pump. The method described in “Multistage Cascade Impactor Apparatus” in USP 2000 “Physical Tests and Determinations/Aerosols” was basically employed. A specific condition is as described below.
Suitable amounts of the formulations were filled into the No. 2 capsules specified by the Japanese Pharmacopoeia and placed on the device.
These formulations were analyzed using a cascade impactor. […] These RF values are obtained by weighing the powders collected at each stage and dividing the amounts collected at stages 2 to 5 by a total amount of finely ground substances contained in the formulations.
These formulations were analyzed using a cascade impactor. […] These RF values are obtained by quantifying by HPLC the glucagon in formulations collected at each stage and dividing the amounts of glucagon at stages 2 to 5 by the total amount of glucagon contained in the encapsulated formulations. Conditions for HPLC analysis are as shown below.
These formulations were filled into the No. 2 capsules specified by the Pharmacopoeia of Japan and analyzed using the following device.

Substance: glucagon
- Retention in capsule (No. 2 capsule, Jet-haler, suctioning for 10 seconds): Almost all formulations remained due
- RF value (glucagon by HPLC at stages 2 to 5 / total glucagon in encapsulated formulations, lactose carrier Pharmatose 325 M): 0%
